Laboratory results taken from patent US20220403048A1, “BINDING MOLECULES TO ARGINASE II [ARG2]” (Cancer Research Technology Limited, priority 2019, published 2022).

Columns and labels:
trimeric human ARG2 = target: T1, trimeric human ARG2 (Homo sapiens, UniProt P78540); experiment: Human trimeric ARG2 enzyme inhibition assay (urea production); format: biochemical; details: clones in scFv format, FIG. 9; read-out: Trimeric human ARG2 EIA IC50
T1 construct: human ARG2 (aa23-354); His10 (C); made in house; host or cells: E. coli BL21 (DE3)
T1 sequence (P78540 23-354): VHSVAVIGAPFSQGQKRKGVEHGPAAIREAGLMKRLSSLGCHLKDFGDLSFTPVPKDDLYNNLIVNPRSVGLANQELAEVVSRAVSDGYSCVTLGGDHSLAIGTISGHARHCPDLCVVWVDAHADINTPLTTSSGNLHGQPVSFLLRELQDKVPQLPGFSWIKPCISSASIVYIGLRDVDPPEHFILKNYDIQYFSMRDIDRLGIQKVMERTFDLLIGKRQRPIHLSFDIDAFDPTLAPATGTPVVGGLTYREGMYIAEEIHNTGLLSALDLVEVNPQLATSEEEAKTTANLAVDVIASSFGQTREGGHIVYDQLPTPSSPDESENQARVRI
Description: Unpurified anti-ARG2 scFv fragments from periplasmic preparations were screened in an ARG2 enzyme inhibition assay using a Pherastar plate reader (BMG Labtech, Germany). In this assay, the ability of unpurified scFv to inhibit the enzymatic activity of trimeric ARG2 was determined by measuring the production of urea, the product of L-arginine turnover by ARG2.
Selection outputs were screened as unpurified bacterial periplasmic extracts containing scFv, prepared in 200 mM TES buffer pH 7.4, 0.5 mM EDTA and 0.5 M sucrose. 10 μl of unpurified scFv were added to a Greiner Bio-One® 384 well assay plate (Greiner Bio-one, UK; cat: 781901). This was followed by the addition of 5 μl of 1.6 μg/ml trimeric human ARG2 that had been diluted in 40 mM MnCl2, 100 mM tris-HCl, pH7.4 (4× enzyme buffer). […]
Urea was detected by the simultaneous addition of equal volumes of O-Phthaldialdehyde (1.5 mM O-Phthaldialdehyde, 7% H2SO4, 0.03% Brij L23) and N-(1-Napthyl)ethylenediamine (1.66 mM N-(1-Napthyl)ethylenediamine, 81 mM Boric acid, 21% H2SO4, 0.03% Brij L23) followed by an 18 minute incubation at room temperature before the colorimetric product was quantified on the Pherastar by measuring absorbance at 505 nm. […]
Data were analysed by calculating % maximum (max) control for each sample using the 505 nm absorbance data. % max control was determined according to equation 2. […]
IC50 values were determined by testing a dilution series of the purified scFv, prepared in TBS, in the ARG2 enzyme inhibition assay described in section 1.5, substituting the unpurified scFv periplasmic preparation with the purified scFv.
Background control wells were defined for each plate by the omission of substrate. […] Data were analysed by calculating % maximum (max) control for each sample. % max control was determined according to equation 1 detailed in section 1.5. […]
Data were again analysed by calculating % Max control values for each sample. […]

[1] = target: T2, biotinylated recombinant human trimeric ARG2 enzyme (Homo sapiens, UniProt P78540, E275H/R327K); experiment: C0020187 IgG epitope competition HTRF assay; format: binding; details: clones in scFv format, FIG. 8; read-out: 18° IgG epitope competition assay IC50
T2 construct: His10 (after a GGG linker) (C); made in house; host or cells: E. coli BL21 (DE3)
T2 sequence (P78540 with tags, fused parts or gaps E275H/R327K): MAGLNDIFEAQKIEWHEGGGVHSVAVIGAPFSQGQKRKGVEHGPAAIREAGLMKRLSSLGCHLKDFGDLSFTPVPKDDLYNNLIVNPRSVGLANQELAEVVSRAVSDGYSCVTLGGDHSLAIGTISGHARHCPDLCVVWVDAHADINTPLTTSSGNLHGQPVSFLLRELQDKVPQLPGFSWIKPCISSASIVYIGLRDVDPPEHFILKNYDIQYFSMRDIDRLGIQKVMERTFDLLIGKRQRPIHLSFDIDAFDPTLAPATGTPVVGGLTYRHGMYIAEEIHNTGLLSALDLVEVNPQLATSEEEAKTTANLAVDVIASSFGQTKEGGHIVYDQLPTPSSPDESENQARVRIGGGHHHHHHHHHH
From the text: Two thousand and twenty four scFv chosen at random from selection rounds 3 and 4 of the targeted mutagenesis approach described in section 2.2, 2.3 and 2.4 were expressed in E. coli to produce unpurified periplasmic scFv. Those scFv capable of competing with C0020187 IgG for binding to recombinant human trimeric ARG2 enzyme (i.e., those scFv that bind at or near the epitope bound by C0020187 IgG) were elucidated in a competition format assay, using the HTRF™ platform. […]
A ‘Maximum’ binding signal was determined by analysing the binding of C0020187 IgG to biotinylated recombinant human trimeric ARG2 enzyme in the absence of competitor scFv. […] Finally, a ‘Background’ signal was determined by analysing the fluorescence generated in the absence of C0020187 IgG.
Unpurified periplasmic scFv were supplied in sample buffer consisting of 200 mM tris base, pH 7.4, 0.5 mM EDTA, and 0.5 M sucrose. […] Assay plates were sealed and then incubated overnight at room temperature in the dark, prior to measuring time-resolved fluorescence at 620 and 665 nm emission wavelengths on a fluorescence plate reader.
Data were analysed by calculating % Delta F values for each sample. % Delta F was determined according to equation 1. […]
Data were again analysed by calculating the % Delta F and % Control binding values for each sample. […]

IC50 (trimeric human ARG2): 97.6 nM
IC50 [1]: 57.8 nM
B1: C0021142: anti-ARG2 antibody, VH SEQ ID NO: 232, VL SEQ ID NO: 237 (antibody, listed as Homo sapiens, V domains shown)
VH: EVQLLESGGGLVQPGGSLRLSCAASGFTFSSYAMSWVRQAPGKGLEWVSAHTHSPGSTYYADSVKGRFTISRDNSKNTLYLQMNSLRAEDTAVYYCARLRADLGLYMDLWGRGTLVTVSS
VL: QSVLTQPPSVSAAPGQKVTISCSGSSSNIGNHYVSWYQQLPGTAPKLLIYDNSERPSGVPDRFSGSKSGTSATLGITGLQTGDEADYYCGTWDSSLSALVFGGGTKLTVL
modifications: C0021142
